Measured values published in publication doi:10.1101/2025.05.02.651858, “Structural basis of unidirectional DNA recombination by the ϕC31 serine integrase” (bioRxiv, 2025).

B1: ϕC31 integrase S12A (cleavage-deficient mutant, full length) (enzyme, Streptomyces phage ϕC31, UniProt Q9T221 1-605, looked up)
chain: MDTYAGAYDRQARERENSSAASPATQRSANEDKAADLQREVERDGGRFRFVGHFSEAPGTSAFGTAERPEFERILNECRAGRLNMIIVYDVSRFSRLKVMDAIPIVSELLALGVTIVSTQEGVFRQGNVMDLIHLIMRLDASHKESSLKSAKILDTKNLQRELGGYVGGKAPYGFELVSETKEITRNGRMVNVVINKLAHSTTPLTGPFEFEPDVIRWWWREIKTHKHLPFKPGSQAAIHPGSITGLCKRMDADAVPTRGETIGKKTASSAWDPATVMRILRDPRIAGFAAEVIYKKKPDGTPTTKIEGYRIQRDPITLRPVELDCGPIIEPAEWYELQAWLDGRGRGKGLSRGQAILSAMDKLYCECGAVMTSKRGEESIKDSYRCRRRKVVDPSAPGQHEGTCNVSMAALDKFVAERIFNKIRHAEGDEETLALLWEAARRFGKLTEAPEKSGERANLVAERADALNALEELYEDRAAGAYDGPVGRKHFRKQQAALTLRQQGAEERLAELEAAEAPKLPLDQWFPEDADADPTGPKSWWGRASVDDKRVFVGLFVDKIVVTKSTTGRGQGTPIEKRASITWAKPPTDDDEDDAQDGTEDVAA
notes: ϕC31 integrase, Streptomyces phage ϕC31, UniProt Q9T221, 605-amino acid polypeptide chain, with S12A; also called full-length S12A integrase; source: E. coli BL21 (DE3) LOBSTR, pET28a, purified (HisTrap Ni-NTA, Superose 6 SEC)

Key:
[1] = target: the molecule itself; assay: SEC-MALS; SEC-MALLS of equal amounts of purified integrase–attB and integrase–attP complexes mixed; step: two dimer–att complexes to the tetramer–attB–attP synaptic complex; Superose 6 increase 10/300, 20 mM HEPES pH 7.4, 150 mM NaCl, 2 mM MgCl2, 0.1 mM TCEP, 25 °C
[2] = target: the molecule itself; assay: SEC-MALS; SEC-MALLS of integrase–attL complexes, without RDF; step: dimer–attL to attL–attL synaptic complex; Superose 6 increase 10/300, 20 mM HEPES pH 7.4, 150 mM NaCl, 2 mM MgCl2, 0.1 mM TCEP, 25 °C
[3] = target: the molecule itself; assay: cryo-EM structure; WT integrase–attL60 dimer complex, without RDF; 20 mM HEPES pH 7.4, 150 mM NaCl, 2 mM MgCl2, 0.1 mM TCEP; 0.4 mg/ml
[4] = target: B1; assay: SEC-MALS; SEC-MALLS with SDS-PAGE of the peaks: pre-formed integrase S12A–attB–attP synaptic complex mixed with RDF at 1:3 integrase:RDF molar ratio, 5 min room temperature; Superose 6 increase 10/300, 20 mM HEPES pH 7.4, 150 mM NaCl, 2 mM MgCl2, 0.1 mM TCEP, 25 °C; conditions: both partners purified

B1 was tested, and the “stoichiometry N” value [1] was 4.

B2: ϕC31 integrase S12A/E449K (enzyme, Streptomyces phage ϕC31, UniProt Q9T221 1-605, looked up)
chain: MDTYAGAYDRQARERENSSAASPATQRSANEDKAADLQREVERDGGRFRFVGHFSEAPGTSAFGTAERPEFERILNECRAGRLNMIIVYDVSRFSRLKVMDAIPIVSELLALGVTIVSTQEGVFRQGNVMDLIHLIMRLDASHKESSLKSAKILDTKNLQRELGGYVGGKAPYGFELVSETKEITRNGRMVNVVINKLAHSTTPLTGPFEFEPDVIRWWWREIKTHKHLPFKPGSQAAIHPGSITGLCKRMDADAVPTRGETIGKKTASSAWDPATVMRILRDPRIAGFAAEVIYKKKPDGTPTTKIEGYRIQRDPITLRPVELDCGPIIEPAEWYELQAWLDGRGRGKGLSRGQAILSAMDKLYCECGAVMTSKRGEESIKDSYRCRRRKVVDPSAPGQHEGTCNVSMAALDKFVAERIFNKIRHAEGDEETLALLWEAARRFGKLTKAPEKSGERANLVAERADALNALEELYEDRAAGAYDGPVGRKHFRKQQAALTLRQQGAEERLAELEAAEAPKLPLDQWFPEDADADPTGPKSWWGRASVDDKRVFVGLFVDKIVVTKSTTGRGQGTPIEKRASITWAKPPTDDDEDDAQDGTEDVAA
notes: ϕC31 integrase, UniProt Q9T221, with S12A and E449K; also called S12A/E449K double mutant; source: E. coli BL21 (DE3) LOBSTR, pET28a, purified (HisTrap Ni-NTA, Superose 6 SEC)
B2: binds [2].

B3: ϕC31 integrase (wild type) (enzyme, Streptomyces phage ϕC31, UniProt Q9T221 1-605, looked up)
chain: MDTYAGAYDRQSRERENSSAASPATQRSANEDKAADLQREVERDGGRFRFVGHFSEAPGTSAFGTAERPEFERILNECRAGRLNMIIVYDVSRFSRLKVMDAIPIVSELLALGVTIVSTQEGVFRQGNVMDLIHLIMRLDASHKESSLKSAKILDTKNLQRELGGYVGGKAPYGFELVSETKEITRNGRMVNVVINKLAHSTTPLTGPFEFEPDVIRWWWREIKTHKHLPFKPGSQAAIHPGSITGLCKRMDADAVPTRGETIGKKTASSAWDPATVMRILRDPRIAGFAAEVIYKKKPDGTPTTKIEGYRIQRDPITLRPVELDCGPIIEPAEWYELQAWLDGRGRGKGLSRGQAILSAMDKLYCECGAVMTSKRGEESIKDSYRCRRRKVVDPSAPGQHEGTCNVSMAALDKFVAERIFNKIRHAEGDEETLALLWEAARRFGKLTEAPEKSGERANLVAERADALNALEELYEDRAAGAYDGPVGRKHFRKQQAALTLRQQGAEERLAELEAAEAPKLPLDQWFPEDADADPTGPKSWWGRASVDDKRVFVGLFVDKIVVTKSTTGRGQGTPIEKRASITWAKPPTDDDEDDAQDGTEDVAA
notes: ϕC31 integrase, Streptomyces phage ϕC31, UniProt Q9T221, 605-amino acid polypeptide chain; Used only for the integrase–attL cryo-EM complex (dimer on attL60 DNA); also called WT integrase; source: E. coli BL21 (DE3) LOBSTR, pET28a, purified (HisTrap Ni-NTA, Superose 6 SEC)
B3: binds [3].

B4: ϕC31 Recombination Directionality Factor (RDF), gp3 (natural protein, Streptomyces phage ϕC31, UniProt Q9T216 1-244, looked up)
chain: MAKRSIWAGDEDNKPKKRETYADDTVGRFHSGYSETNERGKVVPVALDKWRISTGEQSVADAVAQLFGGTPVENEESTSENFIDVFTDRPKVPVIIEADGIHWDMKLWLNGKLKHHCDGFDFVSHADEEMIGQPCGCPKLFDERKAAAKEYDAPNPAITVTFTLADDPELGRFKFQTGSWTLFKVLHEAEDDVERVGKGGAVLANLELELVEYTPKRGPMRNKLVSYYKPTITVLKSYNDAIAD
notes: RDF gp3 protein of Streptomyces phage ϕC31, UniProt Q9T216; residues 23–239 were modelled in the cryo-EM structure; In the excisive synaptic complex structure the RDF stood as the C-terminal part of the fusion protein m9, not as the separate His-tagged protein; source: E. coli BL21 (DE3) LOBSTR, pET28a, purified (HisTrap Ni-NTA, Superdex 200 SEC)
B4: binds [4].

B5: ϕC31 integrase ΔNTD (residues 1–140 deleted) (domain or fragment, Streptomyces phage ϕC31, UniProt Q9T221 141-605, looked up)
chain: ASHKESSLKSAKILDTKNLQRELGGYVGGKAPYGFELVSETKEITRNGRMVNVVINKLAHSTTPLTGPFEFEPDVIRWWWREIKTHKHLPFKPGSQAAIHPGSITGLCKRMDADAVPTRGETIGKKTASSAWDPATVMRILRDPRIAGFAAEVIYKKKPDGTPTTKIEGYRIQRDPITLRPVELDCGPIIEPAEWYELQAWLDGRGRGKGLSRGQAILSAMDKLYCECGAVMTSKRGEESIKDSYRCRRRKVVDPSAPGQHEGTCNVSMAALDKFVAERIFNKIRHAEGDEETLALLWEAARRFGKLTEAPEKSGERANLVAERADALNALEELYEDRAAGAYDGPVGRKHFRKQQAALTLRQQGAEERLAELEAAEAPKLPLDQWFPEDADADPTGPKSWWGRASVDDKRVFVGLFVDKIVVTKSTTGRGQGTPIEKRASITWAKPPTDDDEDDAQDGTEDVAA
notes: ϕC31 integrase, UniProt Q9T221, residues 1–140 deleted from the 605-amino acid chain; source: E. coli BL21 (DE3) LOBSTR, pET28a, purified (HisTrap Ni-NTA, Superose 6 SEC)
B5: binds [1].
